From patent publication US20240400675A1 (published 2024)
Substitutions are numbered along the chain they refer to.

T1: human CLDN5 (human, UniProt O00501 1-218)
T1 construct: whole, on cells
T1 sequence (looked up): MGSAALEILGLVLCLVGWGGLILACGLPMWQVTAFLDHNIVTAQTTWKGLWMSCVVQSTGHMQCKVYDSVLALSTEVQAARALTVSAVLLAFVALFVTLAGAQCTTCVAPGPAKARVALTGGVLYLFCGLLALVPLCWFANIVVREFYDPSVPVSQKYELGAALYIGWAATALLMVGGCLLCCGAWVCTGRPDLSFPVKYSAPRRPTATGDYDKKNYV

T2: human CLDN17 (human, UniProt P56750 1-224)
T2 construct: whole, on cells
T2 sequence (looked up): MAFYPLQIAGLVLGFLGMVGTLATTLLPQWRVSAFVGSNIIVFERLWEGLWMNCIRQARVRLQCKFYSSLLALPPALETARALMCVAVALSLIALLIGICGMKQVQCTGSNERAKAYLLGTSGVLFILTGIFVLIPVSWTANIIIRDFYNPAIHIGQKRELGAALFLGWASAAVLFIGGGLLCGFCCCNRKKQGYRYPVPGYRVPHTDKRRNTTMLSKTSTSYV

T3: human CLDN8 (human, UniProt P56748 1-225)
T3 construct: whole, on cells
T3 sequence (looked up): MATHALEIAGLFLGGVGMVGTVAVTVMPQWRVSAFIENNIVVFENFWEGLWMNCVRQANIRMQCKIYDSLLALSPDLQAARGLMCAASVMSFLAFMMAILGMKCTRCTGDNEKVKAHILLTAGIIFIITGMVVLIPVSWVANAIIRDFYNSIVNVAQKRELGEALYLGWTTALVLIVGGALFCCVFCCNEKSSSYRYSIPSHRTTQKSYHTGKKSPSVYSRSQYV

T4: human CLDN6 (human, UniProt P56747 1-220)
T4 construct: also called Claudin 6
T4 sequence: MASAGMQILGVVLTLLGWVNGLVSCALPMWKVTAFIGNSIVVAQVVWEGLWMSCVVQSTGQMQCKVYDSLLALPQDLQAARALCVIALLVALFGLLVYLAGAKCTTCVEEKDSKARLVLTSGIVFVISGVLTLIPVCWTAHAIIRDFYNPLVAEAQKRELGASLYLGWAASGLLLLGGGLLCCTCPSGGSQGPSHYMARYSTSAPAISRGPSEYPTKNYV

T5: mouse CLDN6 (mouse, UniProt Q9Z262 1-219)
T5 construct: whole, on cells; also called murine CLDN6
T5 sequence (looked up): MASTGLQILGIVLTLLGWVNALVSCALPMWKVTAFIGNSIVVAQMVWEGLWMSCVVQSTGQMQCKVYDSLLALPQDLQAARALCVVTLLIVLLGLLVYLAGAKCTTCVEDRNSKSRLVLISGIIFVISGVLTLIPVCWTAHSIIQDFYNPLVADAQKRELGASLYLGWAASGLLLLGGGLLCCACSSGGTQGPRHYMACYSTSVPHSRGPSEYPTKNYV

T6: CLDN6 I143V isotype (human, UniProt P56747 1-220)
T6 chain: T4 sequence with I143V

B1: XENP34638 (C6-30_H2L1 x CD3 bsAb in the 2+1 Fab2-scFv-Fc format) (bispecific antibody)
heavy 1: EVQLVQSGAEVKKPGESLRISCKTSGYTFTEYTMHWVRQMPGKSLEWMGGIDPNNGNTHYNQKFQGHVTISVDKSISTAYLQWSSLKASDTAMYYCARIYYFGRLYFDFWGAGTLVTVSSASTKGPSVFPLAPSSKSTSGGTAALGCLVKDYFPEPVTVSWNSGALTSGVHTFPAVLQSSGLYSLSSVVTVPSSSLGTQTYICNVNHKPSDTKVDKKVEPKSCDKTHTCPPCPAPPVAGPSVFLFPPKPKDTLMISRTPEVTCVVVDVKHEDPEVKFNWYVDGVEVHNAKTKPREEEYNSTYRVVSVLTVLHQDWLNGKEYKCKVSNKALPAPIEKTISKAKGQPREPQVYTLPPSREEMTKNQVSLTCDVSGFYPSDIAVEWESDGQPENNYKTTPPVLDSDGSFFLYSKLTVDKSRWEQGDVFSCSVMHEALHNHYTQKSLSLSPGK
heavy 2: EVQLVQSGAEVKKPGESLRISCKTSGYTFTEYTMHWVRQMPGKSLEWMGGIDPNNGNTHYNQKFQGHVTISVDKSISTAYLQWSSLKASDTAMYYCARIYYFGRLYFDFWGAGTLVTVSSASTKGPSVFPLAPSSKSTSGGTAALGCLVKDYFPEPVTVSWNSGALTSGVHTFPAVLQSSGLYSLSSVVTVPSSSLGTQTYICNVNHKPSNTKVDKKVEPKSCGGGGSGGGGSQAVVTQEPSLTVSPGGTVTLTCGSSTGAVTTSNYANWVQQKPGKSPRGLIGGTNKRAPGVPARFSGSLLGGKAALTISGAQPEDEADYYCALWYSNHWVFGGGTKLTVLGKPGSGKPGSGKPGSGKPGSEVQLVESGGGLVQPGGSLRLSCAASGFTFSTYAMNWVRQAPGKGLEWVGRIRSKYNNYATYYADSVKGRFTISRDDSKNTLYLQMNSLRAEDTAVYYCVRHGNFGDSYVSWFAYWGQGTLVTVSSGGGGSGGGGSKTHTCPPCPAPPVAGPSVFLFPPKPKDTLMISRTPEVTCVVVDVKHEDPEVKFNWYVDGVEVHNAKTKPREEQYNSTYRVVSVLTVLHQDWLNGKEYKCKVSNKALPAPIEKTISKAKGQPREPQVYTLPPSREQMTKNQVKLTCLVKGFYPSDIAVEWESNGQPENNYKTTPPVLDSDGSFFLYSKLTVDKSRWQQGNVFSCSVMHEALHNHYTQKSLSLSPGK
light: not shown
notes: copies: 1 + 1 + 2
B2: XENP34637 (C6-30_H2L1 x CD3 bsAb in the 1+1 Fab-scFv-Fc format) (bispecific antibody)
heavy: B1 heavy 1
scFv-Fc: not shown
light: not shown
notes: copies: 1 + 1 + 1
B3: XENP34233 (C6-30_H1L1 x CD3 bsAb in the 2+1 Fab2-scFv-Fc format) (bispecific antibody)
heavy 1: QVQLVQSGAEVKKPGASVKVSCKTSGYTFTEYTMHWVRQAPGQSLEWMGGIDPNNGNTHYNQKFQGRVTITVDKSASTAYMELSSLRSEDTAVYYCARIYYFGRLYFDFWGAGTLVTVSSASTKGPSVFPLAPSSKSTSGGTAALGCLVKDYFPEPVTVSWNSGALTSGVHTFPAVLQSSGLYSLSSVVTVPSSSLGTQTYICNVNHKPSDTKVDKKVEPKSCDKTHTCPPCPAPPVAGPSVFLFPPKPKDTLMISRTPEVTCVVVDVKHEDPEVKFNWYVDGVEVHNAKTKPREEEYNSTYRVVSVLTVLHQDWLNGKEYKCKVSNKALPAPIEKTISKAKGQPREPQVYTLPPSREEMTKNQVSLTCDVSGFYPSDIAVEWESDGQPENNYKTTPPVLDSDGSFFLYSKLTVDKSRWEQGDVFSCSVMHEALHNHYTQKSLSLSPGK
heavy 2: QVQLVQSGAEVKKPGASVKVSCKTSGYTFTEYTMHWVRQAPGQSLEWMGGIDPNNGNTHYNQKFQGRVTITVDKSASTAYMELSSLRSEDTAVYYCARIYYFGRLYFDFWGAGTLVTVSSASTKGPSVFPLAPSSKSTSGGTAALGCLVKDYFPEPVTVSWNSGALTSGVHTFPAVLQSSGLYSLSSVVTVPSSSLGTQTYICNVNHKPSNTKVDKKVEPKSCGGGGSGGGGSQAVVTQEPSLTVSPGGTVTLTCGSSTGAVTTSNYANWVQQKPGKSPRGLIGGTNKRAPGVPARFSGSLLGGKAALTISGAQPEDEADYYCALWYSNHWVFGGGTKLTVLGKPGSGKPGSGKPGSGKPGSEVQLVESGGGLVQPGGSLRLSCAASGFTFSTYAMNWVRQAPGKGLEWVGRIRSKYNNYATYYADSVKGRFTISRDDSKNTLYLQMNSLRAEDTAVYYCVRHGNFGDSYVSWFAYWGQGTLVTVSSGGGGSGGGGSKTHTCPPCPAPPVAGPSVFLFPPKPKDTLMISRTPEVTCVVVDVKHEDPEVKFNWYVDGVEVHNAKTKPREEQYNSTYRVVSVLTVLHQDWLNGKEYKCKVSNKALPAPIEKTISKAKGQPREPQVYTLPPSREQMTKNQVKLTCLVKGFYPSDIAVEWESNGQPENNYKTTPPVLDSDGSFFLYSKLTVDKSRWQQGNVFSCSVMHEALHNHYTQKSLSLSPGK
light: not shown
notes: copies: 1 + 1 + 2
B4: XENP34229 (C6-30_H1L1 x CD3 bsAb in the 1+1 Fab-scFv-Fc format) (bispecific antibody)
heavy: B3 heavy 1
scFv-Fc: QAVVTQEPSLTVSPGGTVTLTCGSSTGAVTTSNYANWVQQKPGKSPRGLIGGTNKRAPGVPARFSGSLLGGKAALTISGAQPEDEADYYCALWYSNHWVFGGGTKLTVLGKPGSGKPGSGKPGSGKPGSEVQLVESGGGLVQPGGSLRLSCAASGFTFSTYAMNWVRQAPGKGLEWVGRIRSKYNNYATYYADSVKGRFTISRDDSKNTLYLQMNSLRAEDTAVYYCVRHGNFGDSYVSWFAYWGQGTLVTVSSEPKSSDKTHTCPPCPAPPVAGPSVFLFPPKPKDTLMISRTPEVTCVVVDVKHEDPEVKFNWYVDGVEVHNAKTKPREEQYNSTYRVVSVLTVLHQDWLNGKEYKCKVSNKALPAPIEKTISKAKGQPREPQVYTLPPSREQMTKNQVKLTCLVKGFYPSDIAVEWESNGQPENNYKTTPPVLDSDGSFFLYSKLTVDKSRWQQGNVFSCSVMHEALHNHYTQKSLSLSPGK
light: not shown
notes: copies: 1 + 1 + 1

The binders below were run against T1, human CLDN5 (assay: flow cytometry on transfected cells).

| binding result | Binder |
| --- | --- |
| no binding | B1 |
| no binding | B2 |
| no binding | B3 |
| no binding | B4 |

What follows are binders tested against T2, human CLDN17 (assay: flow cytometry on transfected cells).

| binding result | Binder |
| --- | --- |
| no binding | B1 |
| no binding | B2 |
| no binding | B3 |
| no binding | B4 |

What follows are binders tested against T3, human CLDN8 (assay: flow cytometry on transfected cells).

| binding result | Binder |
| --- | --- |
| no binding | B1 |
| no binding | B2 |
| no binding | B3 |
| no binding | B4 |

The binders below were run against T4, human CLDN6 (assay: flow cytometry on transfected HEK293E cells).
Protocol: (§1) The following experiments used to screen CLDN6 binding domains were generally performed as follows. HEK293T or HEK293E cells were respectively stably or transiently transfected to express CLDN6, CLND9, or other targets of interest. 48 hours post transfection, cells were harvested and incubated with dilutions of the indicated test articles for 1 hour at 4° C. […] Binding was then assessed via flow cytometry.

| binding result | Binder |
| --- | --- |
| binds | B1 |
| binds | B2 |
| binds | B3 |
| binds | B4 |

Each binder was assayed against T5, mouse CLDN6 (assay: flow cytometry on transfected HEK293E cells).
Protocol: as §1

| binding result | Binder |
| --- | --- |
| binds | B1 |
| binds | B2 |
| binds | B3 |
| binds | B4 |

Molecular target: T6, CLDN6 I143V isotype
Experiment: flow cytometry on transfected HEK293E cells
Protocol: as §1

| binding result | Binder |
| --- | --- |
| binds | B1 |
| binds | B2 |
| binds | B3 |
| binds | B4 |
